Results on 41 sequences are retold here after the nanobody polyreactivity screen of Harvey et al. (2022).

The data set in a line: yeast display, Sf9 membrane polyspecificity reagent, FACS + sequencing; frameworks hold sequencing errors. The method in brief:
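Galactose induction of a Saccharomyces cerevisiae BJ5465 synthetic nanobody display library ran 36–48 hours. The cells were then stained for 1 hour at 4 °C with 10% biotinylated, detergent-solubilized Sf9 membrane reagent, pulled down on streptavidin microbeads and FACS-sorted into low and high (top ~1%) gates on expression and reagent-binding fluorescence. Labels for polyreactivity follow the gate of origin.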
As to “QVQLVESGGGLVQAGGSLRLSCAASGFTFGRYAMGWYRQAPGKERELVATITRSGVNTYYADSVKGRFTISRDNAKNTVYLQMNSLKPEDTAVYYCAAVEIWYWGFTQYEYWGQGTQVTVSS”, the “polyreactivity (PSR sort gate)” value is “high polyreactivity”.

Take “QVQLVESCGLLVQAGGSLRLSCAASGSIIVYNTMRCYRQAPGKERELVAAIYSSGGSTYYADSVKGRFTISRDNAKNTVYLQMNILKPEDTAVYYCAAVNGYQYPPYYYNGYDYWGQGTHVTVSS”: the “polyreactivity (PSR sort gate)” value was “low polyreactivity”.

For the sequence “QVQLVESGGVLVQAGGSLRLSCAASGSIFFYYAMGWYRQAPGKERELVAAITFTGGSTYYADSVKGRFTISRDNAKNTVYLQMKSLKPEDTAVYYCAADWYYGDEYEYWGQGTQVTVSS”, the “polyreactivity (PSR sort gate)” value is given as “high polyreactivity”.

With “QVQLVESGGGLVQAGGSLRLSCAASGFIFRWYTMGWYRQAPGKERELVAAISWRSGSTSYADSVMGRFTISRDNAKNTVYFQMNSLKPEDSAGYYCNADYSSFWTSYDYWGQGTQVTVSS”, the “polyreactivity (PSR sort gate)” value is recorded as “high polyreactivity”.

Turning to “QVQLVESGGGLVQAGGSLRLRCAASGGNFDNYAMGWYRQAPGKERELVAAISRSGSSTFYADSVNGRFTISRDNAKNTVYLQMNSLKPEDTAVYYCSARYYYFAVYYGYIFEYDYWGQGTQLTVSS”, the “polyreactivity (PSR sort gate)” value is on record as “low polyreactivity”.

For the sequence “QVQLVESGGGLVQAGGSLRLSCAASGRTFGTYAMGWYRQAPGKERELVAAISRRGGTTYYADSVKGRFTISRDNAKNTVYLQMNSLKPEDTAVYYCNVYRVSFSVVPLGYWGQGTQVTVSS”, the “polyreactivity (PSR sort gate)” value is on record as “high polyreactivity”.

On to “QVQLVESGGGLVQAGGSLRLSCAASGFTFWQYTMGWYRQAPGKERDFVASITSGVSTYYADSVKGSFTISRENAKNTVYLQMNSVKPEDTAVYYCAAYYYRRYLRGFFENWGQGTQVTVSS”, for which the “polyreactivity (PSR sort gate)” value was “high polyreactivity”.

On to “QVQLVESGGGLVQAGGSLRLSCAASGITIDVYGMGWYRQAPGKERELVASIRRRGGSTYYADSVKGRFTISRDNAKNTVYLQMNSLKPEDTAVYYCAAVPSDGHRIWSWDPYPEYDYWGQGTQVTVSS”, for which the “polyreactivity (PSR sort gate)” value was “low polyreactivity”.

Take “QVQLVESGGGLVQAGGSLRLSCAASGYTFGSYAMGWYRQAPGKERELVAAISGGGSTNYADSVKGRFTISRDNAKNTVYLQMNSLKPEDTAVYYCAADIRWGQGTQVTVSS”: the “polyreactivity (PSR sort gate)” value is given as “low polyreactivity”.

For “QVQLVESGGGLVQAGGSLRLSCAASGSTSIYYTMGWYRQAPGKERELVAYADSVKGRFTISRDNAKNTVYLQMNSMKPEDTEVYFCAAPRTYYSELTSPYDYWGQGTQVTVSS”, the “polyreactivity (PSR sort gate)” value was “low polyreactivity”.

In the case of “QVQLVESGGGLVQAGGSLRLSCAASGITFKRYAMGWYRQAPGKERELVAAITWRGARTYYADSVKGRFTISRDNAKNTVYLQMNSLKPEDTAVYYCAADGYSGSGPYDYWGQGTQVTVSS”, the “polyreactivity (PSR sort gate)” value is “high polyreactivity”.

With “QVQLVESGGGLVQAGGSLRLSCAASGSIFPGNAMGWYRQAPGKERELVAAIDFSGGSTYYADSVKGRFTISRDNAKNTVYLQMNSLKPEDTAVYYCAASVYPYYGYGYWGQGTQVTVSS”, the “polyreactivity (PSR sort gate)” value is on record as “low polyreactivity”.

With “QVQLVESGGGIDQAGGSLRLSCAASGSTFPRYAMGWYRQAPGKERELVAAISRSGGSTYYADSVKWRFTISRDNAKNTVDLQMNCLKPEDTAVYYCAGRYERGSYKYDYWGQGTEVTVSS”, the “polyreactivity (PSR sort gate)” value is on record as “high polyreactivity”.

As to “QVQLVESGGGLVQAGGSLRLSCAASGLTLFYYVMGWYRQAPGKERELVAANTTSGGRTYYADSVKGRFTISRDNAKHTVYLQMNSLKPEDTAVYYCAAQSSVAYIHTPTYRYDYWGQGTQVTVSS”, the “polyreactivity (PSR sort gate)” value is given as “high polyreactivity”.

In the case of “QVQLVESGGGLVQAGGSLRLSCAASGRIFAGYAMGWYRQAPGKERELVATITRGGSTNYADSVKRPFTISRDNAKNTVYLQMNSLKPDDTAVYYCNADIRRHGGYAHEYWGQGTQVTVSS”, the “polyreactivity (PSR sort gate)” value was “low polyreactivity”.

On to “QFQLVESGGGLVQAGGSLRLSCAASGFIFGGNVMGWYRQAPGKERELVAAITSSATTYYADSVKGRFTISRDNAKNTVYLQMNSLKREDTAVYYCAADTWTIVDYGYWGQGTQVTVSS”, for which the “polyreactivity (PSR sort gate)” value is “low polyreactivity”.

Consider “QVQLVESGGGLVQAGGSLRLSCAASGFTFLWYAMGWYRQAPGKERELVAGISSDGSTYADSVKGRFTISRDNAKNTVYLQMNSLKQEDTAVYYCAAVNNSSIRDNDYWGQGTQVTVSS”, for which the “polyreactivity (PSR sort gate)” value is “low polyreactivity”.

On to “QVQLVESGGGLVQAGGSLRLSCAASGFIFYRYAMGWYRQAPGKERELVAAITSSGGSTYYADSVKGRFTISRDNAKNTVYLQMNSLKPEDTAVYYCAARYTTSRYGYWGQGTQVTVSS”, for which the “polyreactivity (PSR sort gate)” value is “high polyreactivity”.

For the sequence “QVQLVESGGGLVQAGGSLRLSCAASGRIFGYNAMGWYRQAPGKERELVAAITNGGSTNYADSVKGRFTISRDNAKNTVYLQMNSLKPEDTAVYYCVAYVGSTYSAPEYYWGQGTQVTVSS”, the “polyreactivity (PSR sort gate)” value is reported as “low polyreactivity”.

“QVQLVESGGGLVQAGGSLRLSCAASGFTIWRYAMGWYRQAPGKERELVAAISRGGSTNYADSVKGRFTISRDNAKNTVYLQMNSLKPEDTAVYYCAASVQYRRLKKFYYWGQGTQVTVSS”: the “polyreactivity (PSR sort gate)” value is given as “high polyreactivity”.

Turning to “QVQLVESGGGLVQAGGSLRLSCAASGSTFNKYTMGWYRQAPGKERELVAAITSGDSTYYADSVKGRFTISRDNAKNTVYLQMNSLKPEDTAVYYCAADVRYFDPFDWWGSLVLAYDYWGQGTQVTVSS”, the “polyreactivity (PSR sort gate)” value is “low polyreactivity”.

For the sequence “QVQLVESGGGLVQAGGSLRLSCAASGRIFYINAMGWYRQAPGKERELVAAISWSGSSTYYADSVKGRFTISRDNAKNTIYLQMNSLKPEDTAVYYCATVYYDNHYSAGYDYRGQGTQVTVSS”, the “polyreactivity (PSR sort gate)” value was “high polyreactivity”.

As to “QVQLVESGGGLVQAGGSLRISSAASGRIFTPYVMGWYRQAPGKERELVADINLSGDSTSYADSVKGRFTITRDNAKNTVYLQMNSLKPEDTAVYYCNADSYIYVGNDQYDYWGQGTQVTVSS”, the “polyreactivity (PSR sort gate)” value is given as “low polyreactivity”.

Take “QVQLVESGGGLVEAGGSLRLSCAAYGFIFSHNTMGCYRQAPGKERELVAGISWSGGNTYYSDSVKGRFTISRDNAKNTGYLQMNRLKPEDTAVYSFNVRFVTGYRYRYGDDYWGQGTQVTVSS”: the “polyreactivity (PSR sort gate)” value is listed as “low polyreactivity”.

Regarding “QVQLVESGGGLVQAGGSLRLRGAAAGYNFLRYAIGWYRQAPGTERELVAAITNTGNTNYADSVKGRFTISRDNAKNTVYLQMNSLKPEDTAVYSCAAEYYWYSWKNRYKEYDYWGQGTQVTLSS”, the “polyreactivity (PSR sort gate)” value is “low polyreactivity”.

Take “QVQLVESGGGLFQAGGILRLSCAASGFTFERNDMGWYRQAPGKERELVATISQSGTNTYYADSVKGRFTISRDNAKNTVYVQMNSMKPEDTAVYYCNARYIFYRYDYWGHGTQVTVSS”: the “polyreactivity (PSR sort gate)” value is reported as “low polyreactivity”.

Consider “QVQLVESGGGLVQAGGSLRLSCAASGFIFKYNVMGWYRQAPGKERELVAAIRGSGRTYYADSVKGRFTISRDNAKNTVYLQMNSLKPEDTAVYYCGADIQAYASRVYAGFDYWGQGTQVTVSS”, for which the “polyreactivity (PSR sort gate)” value is listed as “low polyreactivity”.

On to “QDQLVESGGGLVQAGGSLRLSCAASGLIFSYYAMGWYRQAPGKERELVAAIDWISGSKYYADSVKGLFTISRDNAKNTVYLQMNSLKPEDTAVYYCAAYGSFWYARFGYCGQGTQVTVSS”, for which the “polyreactivity (PSR sort gate)” value is listed as “low polyreactivity”.

With “QVQLVESGGGLVQAGGSLRLSCAASGLIFYYYAMGWYRQAPGKEREFVAAISRSGGITRYADSVKGRFTISRDNAKNTVYLQMNSLKPEDTAVYYCAADAYPLTYDDYYWGQGTKVTVSS”, the “polyreactivity (PSR sort gate)” value is given as “high polyreactivity”.

For the sequence “QVQLVESGGGLVQAGGSLRLSCAASGPTIDLYAMGCYRQAPGKERELVATIRSDGSTTYADSVKGRFTISRDNAKNTVYLQLNSLKPEDTAVYDCAAAFRSGFSSSTTPVQSDWGQGTQVTVSS”, the “polyreactivity (PSR sort gate)” value is “low polyreactivity”.

On to “QDQLVESGGGLVQAGGSLRLSCDASGSIFRYYTMGWYRQAHGQERELVARISYSGGRTYYAVSVKGRFTISRDNAKNTVYLQMNSLKPEDTAVYYCNTVTRWVGKLEYWGHGTQVTVSS”, for which the “polyreactivity (PSR sort gate)” value is listed as “high polyreactivity”.

As to “QVQLVESGGGLVQAGGSLRLSCAASGSIFWPYAMGWYRQAPGKEREFVATISSSGSRTHYADSVKGRFTISRDNAKNTVSLQMNSLKPEDTAVYYCNADNPYSDGADSLGNYWGQGTQVTVSS”, the “polyreactivity (PSR sort gate)” value was “low polyreactivity”.

“QVQLVESGGGLVQAGGSLRLSCAASGSTFGYYAMGWYRQAPGKERELVAAITKRSGRTYYADSVKGRFTISRDNAKNTVYLQLNSLKPEDTAVYYCAARYTFDRWKFGYWGQGTQVTVSS”: the “polyreactivity (PSR sort gate)” value is listed as “high polyreactivity”.

In the case of “QVQLVESGGGLVQAGGSLRLSCAASGFIFPRYVMGWSRQAPGKERELVAAINSDISTNYADSVKGRFTISRDNAKNTVYLQMNSLKPEDTAVYDCAAERWDDRWEFDYWGQGTQVTVSS”, the “polyreactivity (PSR sort gate)” value was “low polyreactivity”.

Turning to “QVQLVESGGGLVQAGGSLRLSCAASGSTFSYNAMGWYRQAPGKERELVAAISRGDVSTYYADSVKGRFTISRDNAKNTVYLQMNSLKPEDTAVYYCAAYWYGSQYKWRYDYWGQGTQVTVSS”, the “polyreactivity (PSR sort gate)” value is reported as “low polyreactivity”.

Consider “QVQLVESGGGLVQAGGSLRLSCAASGIIFRYNAMGLYRQAPGKERELVAAISWSGGYTYYADYVKGRFTISRDNAKNTVYFQMNSLKPEDTAVYYFNAVSLSRWGGYWGQGTQVTVSS”, for which the “polyreactivity (PSR sort gate)” value is “high polyreactivity”.

Turning to “QVQLVESGGGLVQAGGSLRLSCADSGFTFVEYAMGWYRQAPGKERELVAAITRSGTRTYYADSVKGRFTISRDNAKNTVYLQMNSLKPEDTAVYYCNKPYSKTNHYDSWGQGTQVTVSS”, the “polyreactivity (PSR sort gate)” value is “high polyreactivity”.

Regarding “QVQLVVSGGGLVQAGGSLRLSCAASGRTFPGNAMGGYRQAPGKERELVASINGRTTRTYYADSVKGRFTISRDNAKNTVYLQMNSLKPEDTAVYYCAADPPGYVYGKRYYWGQGTQVTVSS”, the “polyreactivity (PSR sort gate)” value is “high polyreactivity”.

In the case of “QVQLVESGGGLVQAGGSLRLSCAASGFTFQYYAMGWYRQAPGKERELVAVISRSGGRTYYADSVKGRFTISRDNGKNTVYLQMISLKPEDTAVYYCNAQSYIPTTETYDYWGQGTQVTVSS”, the “polyreactivity (PSR sort gate)” value was “high polyreactivity”.

In the case of “QVQLVESGGGLVQAGGSLRLSCAASGFIFVSYAMGWYRQAPGKERELVAAIDRIGGITYYADSVKGRFSISRDNAKNTVYLQMNSLKPEDTAVYYCAAAARYATVRVGREYYWGQGTQVTVSS”, the “polyreactivity (PSR sort gate)” value is given as “low polyreactivity”.

Regarding “QVQLVESGGGLVQAGGSLRLSGAASGIIVPDYAMGWNKQAPGKERELVPDISFSAGSTYYADSVKGRFTISRDNAKNTVYLQMNSLKPDDTAVYVCAADQTSSYYDPWGDYWGQGTQVTVSS”, the “polyreactivity (PSR sort gate)” value is “low polyreactivity”.
